Measured values: paper PMC11588662 (2024)

Biological target: CD33 Db-FM (fluorescein-maleimide-labelled anti-CD33 diabody, clone SGN-33) (fluorescein-5-maleimide on the engineered C-terminal cysteine (added after the hexahistidine tag))
Assay: SPR

B1: extracellular domain of CD33, His-tagged protein (domain or fragment)
chain: DPNFWLQVQESVTVQEGLCVLVPCTFFHPIPYYDKNSPVHGYWFREGAIISRDSPVATNKLDQEVQEETQGRFRLLGDPSRNNCSLSIVDARRRDNGSYFFRMERGSTKYSYKSPQLSVHVTDLTHRPKILIPGTLEPGHSKNLTCSVSWACEQGTPPIFSWLSAAPTSLGPRTTHSSVLIITPRPQDHGTNLTCQVKFAGAGVTTERTIQLNVTYVPQNPTTGIFPGDGSGKQETRAGVVH
Kd: 7 nM
